In a protein production outcome set (Wang et al. 2014):

Experiment: label from the status in PepcDB records
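Also: failed if final PepcDB status was selected cloned or expressed and not failed if soluble or beyond.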

Sequence | protein production
PDVDGMITLKVDNLTYRTSPDSLRRVFEKYGRVGDVYIPREPHTKAPRGFAFVRFHDRRDAQDAEAAMDGAELDGRELRVQVARYGRRDL | not failed
MSDDLALTALAASSFSLPELREGQLAGMTALVERRDVLAVMPTGYGKSATYQVAALYLHNKTGRPAVVVSPLIALQEDQLDGLAEHLGEGAGVAINSSRSDAEVEAAWQAVESGQAAFLFLAPEQLSKRETVERIANLDITMFVVDEAHCVSSWGHDFRPDYLELGHVREHLGNPPVIALTATASPPVRDEIVKRLGMTEPVVLVRGFDRPNISLDVVRHQEDKGKRKAVMEQVVALAKAEGLGLLYAATRKATEKYAAKLTEHGLRAEAYHAGRADSDRESIHERFLDDQLDVVVATTAFGMGIDKPNVRFVVHADIPESLDSYYQEIGRAGRDGEPATAILHYRAEDLGLRKFFATHSPDAEALTAVLKVIKNAGAPVPKTALVELTGFPARRVTALVNQLEEAGAVTTGKRGTRLSSKAKLTTLVDRAVELAEARQRVDQSRLTMMRAYAETDACRRQFLLGYFGEDLPEPCGNCDACAEIHDDAGSGSAGHLTSTAENLFPLQSTVIHKEWGPGLVMRHEDDVMTVLFEQEGYKTLSRAAVVEHELLKPA | failed
MRTLIILLLCTNTSFAIAQISPKAVEKNNQSVKTAGFFNDSDSLNKAIHLSDEAIALEPSYKLAYANKIKYLMALGQKEKALQTMLQMEKFSPDDPYYILGKGMMLEENAKKSLAMDAYKQAASLFKKRLKEKPTEADLMNYVFVLFLRDNKNYSLDEIEKEYPQIFSPAIRQHTKKLIDELSNKREDVIHEMLGGK | failed
MNSKTHLLLALTMLIWAGSFIFIKIGLKELDPFNLAFYRFLLASPLLMAWVFWKRGLAKPSGSEWLHLSVLALSGVTLLYAFQFLALKYTTATNASILINTSAVFVALWGLVKGEANPRKLAGVFLSFAGVVLIVSKGTLEFFSSKTIFGDVLMIVDGFLWAVYTVLGSKMLLKYDHETLTAYAFALGTIFLIPFALMSGFANPVTFNPETVAALLYLSILCSVFAYVVWYYALTNADSTSVAVYVYLVPLFTAIFAFYALNEKPDFFTAIGGIITIAGVYLTTAKQHQ | failed
MAIDPNSIGAVTEPMLFEWTDRDTLLYAIGVGAGTGDLAFTTENSHGIDQQVLPTYAVICCPAFGAAAKVGTFNPAALLHGSQGIRLHAPLPAAGKLSVVTEVADIQDKGEGKNAIVVLRGRGCDPESGSLVAETLTTLVLRGQGGFGGARGERPAAPEFPDRHPDARIDMPTREDQALIYRLSGDRNPLHSDPWFATQLAGFPKPILHGLCTYGVAGRALVAELGGGVAANITSIAARFTKPVFPGETLSTVIWRTEPGRAVFRTEVAGSDGAEARVVLDDGAVEYVAG | not failed
KPKDIKYVVEESKFKDLREILEFMLKDAVQKLDMFLDMLNYSKPKVDVGDEVIEIKKDNVIEALKLFKDEYEVSKKHIPVPVYTYLIKRNILFLNPIEGILKPQSYLVWNAIKRLL | failed
MIDLAVLPIYLTAVIALLLLPGPDMLLIASSSMSYGRKVGLFASLGNATSGLILTLLAAMGVSTLIAMSPVALKVLHLLGGAYLLKMGWDCLRAEASSAPELDQKNKMASTYYQRALMSNLLNPKALVFFVMFLPQFVSSNITASSGEQMLALGLLLNVLGLLFNLLLVALAGTLGKGLLENEKFRTYQHKLMGLVFVILALWMLSSFVL | failed
MPDASAENPWLPLRQLTPARIALGRTGTSLPTRPQLDFQYAHAQARDAVHLPFDHAAISDGLRQRGRDSLLLHSAAADRHVYLQRPDLGRRLDEASVQRLREHAAGYDGQIDLAIVVADGLSALAVQRHTLPFLERLEEQALAEGWSLSPVVLVEQGRVAVADEIGELLRAKMSVILIGERPGLSSPDSLGLYFTWAPRVGLTDAYRNCISNVRLEGLSYGMAAHRLLYLMREACRRQLSGVNLKDEAEVQALDGEAPRTGNFLLAR | failed
MKVGSQVIINTSHMKGMKGAEATVTGAYDTTAYVVSYTPTNGGQRVDHHKWVIQEEIKLEHHHHHH | failed
MRIECYSWSDVSEQILEQAIALQNSAFEDMKGNFYQVDIPYKLVLAIDDNQVIGHVAVYLRDVYLDSFPETIGILSCVVVAHKYRGKGVAASLIKMAHAILKEHSVNFSILFAVSHAYYLSSGYIPMKNLTRFIENNEKKEFIYDGGMVCELGSQNWNVNILELNGEVV | failed
PRKASRKPPREESSATCVLEQPGALGAQILLVQRPNSGLLAGLWEFPSVTWEPSEQLQRKALLQELQRWAGPLPATHLRHLGEVVHTFSHIKLTYQVYGLALEGQTPVTTVPPGARWLTQEEFHTAAVSTAMKKVFRVYQGQ | not failed
MSTSSTQHAAPAFTGFSSSAQAMSLVAFTTVATITLLLCVMTGPDRDDLEEFYTGYGSLSPMRNGLAIAGDYISAATVLGTGGVIALTGYDGVVLALSTALSLMLLMFLLAEPLRNAGQFTMGDALARRMPGRAVRVTACVVTIAALLPLMLVQLAGTGDLLSFILGFSNDTLKTGCIIGLGALMISYAAIGGMKGTALIQIMKIVMLLGSGAVVAVLILHRFDWDPGALFSAAAAHSGAGPAFLRSGLEFAGGPNPRLDMITTELTVVLGGGCLPHVTMRMYTANSARQVRRSMSWAVPAVALFVLVITVVGFGATALVGREAIAAADPQGNTAYLLGSRAAFGPDVSSAETLLFTTVTTALFLTLLASVAGMILACANSLAHDVFAARVQEMSPRREMTLARLSALAVGVPTILLATLVHHRSLQPLVTLSFCIGASAIAPALVYGLFWRRYTRTGLLCTLIGGTLSVVLLLPGTNLVTGSPAAAFPDADFNWFPFTTTGLATIPLGFLLGWLGTLLSGRQKAEAQRRQYEAVEGWILAGAVRRSG | failed
MASRPSVRHPSHNHPLRGHKAQVEDEIICSGCDLDLLGAYFKCTKSECDYFLHKSCFDLPREIRHKSHPDHPLILLYSPQNNNSTYTCDACGEYGSGFTYNCSICQYDVHVGCVSVPETMKHDEHVHPLALIYKAPCPKDHIFTCDVCDETMPHNLWLYYCQKCDYGAHLHSCVAEEEEKSKKGGRGRGGEGGSGGNGVNRGRSSANSELAAMLKAQREMEQMQIALHLEMQRAKIDKKSRKHMLKMI | failed
MNRMMALVMAGGRGTRLAIDCEKPLLEVAGRPMIDHVLEALESATGVDGIIVVTSPHTPMTEDHVRGRHPIFRASGGGYVEDLREVLSHLEESYHEPLLVINSDLPLVRPSTIDWIISSYHSCPEPAMCVAVPDDLCRRHGLDFSGSLDGLVPCGVNILMSKNRVQEQRILEASMLELAVNINSCRDLKVLEKILGEIDGREEAHKRGREVLELEHHHHHH | not failed
AEVDQATKPAEAKYYIAGTITDATTGQELTTAKVTLGDKSVTSSFNEQVNYKAEGYALVVSADGYYPVKRQVYLNQVSDGQTSVATVNVALVSVEAAVIPPVVPPTDPETDINEGEATKVADKAVEVAKPSESTVTDMLAGTTATPEEKKALDETLEMAGGMKVGETTPEVLADGSILAITPVKFTNPIQDAPAMVPYFYNEGCELTGDVKEVAAPVTRADGAVAADIQKAFLSNAAKALNMNAGFVQKIGYTRISVLNGYSILGYTIKGQLVSKKLTFLISGKYYEGIVSYQKSVMIYPNYYSHDSHDSHDSHGFNPNAGGGSND | not failed
MSGRLRNALHKIRDRGLTPRDLFSYGCIAGHRLLSGAWGTLMLRAKAGCLGITVGKGCECFGTVILSRWPGSRIELGDGVSIISSSRRCTSATIHAPTRLRTFAPTARIILEDGVSLNGTAITARSRTIRIGKGTMVAPNCVITDSDFHAMWPPETRLDTPAFERDADVTIGQHVWLGMRCIVLKGVTIGDGAIVAAGSVVTRDVPPATLVAGVPARVVRHLP | failed
MTENEFLSQEEIDKLLSDSDTGGVLTPEEKDMIGEIGNIAMGSAATTLSMILGRDIHITVPTVREEKMKNVKSDFSGEQVVVSVEYTEGLEGLNVLVLDKKLVAVIADLMMGGSGEVETEELDEIKLSAVGEAMNQMMGSAATSLSELLGITINISPPKVEI | not failed
MIKILGHHISTLSITLALYETLIFMCVLYSFIFIMSFFFNIPVPEKLSMVILLALTATIAAGSLGLYNQRLFGDFKEFIWRIALTLPLILLAVLFVSFAYGEITATDQSPFYLAAAFGIPAALLLVVLGRGICFRIPGIKAFRRRILVLGTGEMADRLAALETSQPYRHYEIIGFVALGDDPAPLGEKWRVFDRNCIETRHDLLKICADHNINEVIFAASERRRANSSTFGLPVWDLLECRLMGIHVAEYASFWERETGRIDLDHLRPGWLIFSEGFRNSSRRMIAKRFFDVITALLLVILSLPVLVAAAIAVKLSSPGPVFYRQERVGVNGKPFNLIKFRSMPIDAEKNGPVWGTVKDKRATGVGSLLRRTRIDEIPQVFNVLRGDMSFIGPRPERPVFVEELSRELDFYGERHAVRPGISGWAQINYPYGASVADAKQKLSYDLYYIKNGSLFLDIIILFQTFRVVLWPEGSKEKAGAVVR | failed
MTKITLSPQNFRIQKQETTLLKEKSTEKNSLAKSILAVKNHFIELRSKLSERFISHKNTESSATHFHRGSASEGRAVLTNKVVKDFMLQTLNDIDIRGSASKDPAYASQTREAILSAVYSKNKDQCCNLLISKGINIAPFLQEIGEAAKNVGLPGTTKNDVFTPSGAGANPFITPLISSANSKYPRMFINQHQQASFKIYAEKIIMTEVAPLFNECAMPTPQQFQLILENIANKYIQYTP | failed
MNVINETANVLKLETGSVTSAKGFSAVGIHTGVKRKRKDLGAIVCEVPASSAAVYTLNKVQAAPLKVTQESIAVEGKLQAMIVNSGIANACTGKRGLDDAYTMRAVGAETFHIPEHYVAVTSTGVIGEFLPMDVITNGIRQLKPEATIEGAHAFNEAILTTDTVEKHTCYQTIVNGKTVTVGGVAKGSGMIHPNMATMLSFVTTDANIDHGHLQGALSAITNETFNRITVDGDTSTNDMVVVMASGLAENEALTPEHPDWANFYKALQLACEDLAKQIARDGEGATKLIEVEVTGAANDQEAGMVAKQIVGSDLVKTAIYGADANWGRIICAIGYSGCEVNQETIDIAIGPIVTLKQSEPTGFSEEEATAYLKEADPVKISVNLHIGNGTGKAWGCDLTYDYVRINAGYRT | not failed
REITLDDAALLQRFFVENPEYFHIVHGAAPQPDEARDEIDDALPAGWSYTHKWKIGYFDSEGRLLAFVSIVTDLLAQGVWHIGLFMLATPCHGSSLARQLHAELEAWAAGEGARWLRLSVVQDNARAQGFWNACGYAQVRTRDGIELGRLQHQVRIMIKPL | failed
MRAFIAIDVSESVRDALVRAQDYIGSKEAKIKFVERENFHITLKFLGEITEEQAEEIKKILEKIAKKYKKHEVNVRGIGVFPNPNYVRVIWAGVENDEIIKKIAKEIDDELAKLGFKKEGNFVAHITLGRVKFVKDKLGLAMKLKELANEDFGSFIVEAIELKKSTLTPKGPIYETLARFELSE | not failed
